Test results taken from patent publication US20170335310A1.

What was measured:
C3b [1] = molecular target: C3b (UniProt P01024); assay: cell-based or functional assay
C3b [2] = molecular target: C3b (UniProt P01024); assay: SPR (Biacore), FH flowed over C3b amine-coupled to a CM5 chip; steady-state fit to two flow cells (1540 and 3030 RU C3b) together

Chain of C3b (P01024 749-1663 limits assumed, chain 1 of 2): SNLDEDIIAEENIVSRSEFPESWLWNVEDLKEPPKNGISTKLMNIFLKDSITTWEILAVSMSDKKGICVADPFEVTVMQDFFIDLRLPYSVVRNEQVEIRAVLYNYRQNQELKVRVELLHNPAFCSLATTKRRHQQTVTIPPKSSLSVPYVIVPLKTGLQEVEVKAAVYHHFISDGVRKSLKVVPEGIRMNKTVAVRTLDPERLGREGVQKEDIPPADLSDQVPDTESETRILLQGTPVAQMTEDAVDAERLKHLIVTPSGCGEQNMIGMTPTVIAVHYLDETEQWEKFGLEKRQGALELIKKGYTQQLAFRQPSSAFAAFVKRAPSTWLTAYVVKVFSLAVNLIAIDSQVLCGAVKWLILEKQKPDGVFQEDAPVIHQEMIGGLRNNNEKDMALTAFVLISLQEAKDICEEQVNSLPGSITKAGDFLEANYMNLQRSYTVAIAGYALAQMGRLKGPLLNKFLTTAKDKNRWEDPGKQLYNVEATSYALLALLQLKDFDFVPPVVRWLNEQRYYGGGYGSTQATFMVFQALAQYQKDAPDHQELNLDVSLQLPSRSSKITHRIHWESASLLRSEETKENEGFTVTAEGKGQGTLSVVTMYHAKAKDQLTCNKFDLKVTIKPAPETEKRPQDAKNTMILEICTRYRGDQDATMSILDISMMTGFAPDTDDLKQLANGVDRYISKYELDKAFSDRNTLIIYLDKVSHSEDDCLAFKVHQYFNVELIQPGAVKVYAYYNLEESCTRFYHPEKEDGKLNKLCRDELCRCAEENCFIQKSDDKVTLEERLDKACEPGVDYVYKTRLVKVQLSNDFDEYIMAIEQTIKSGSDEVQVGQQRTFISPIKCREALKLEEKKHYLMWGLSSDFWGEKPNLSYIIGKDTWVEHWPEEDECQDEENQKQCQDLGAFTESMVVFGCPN
Chain of C3b (P01024 23-667 limits assumed, chain 2 of 2): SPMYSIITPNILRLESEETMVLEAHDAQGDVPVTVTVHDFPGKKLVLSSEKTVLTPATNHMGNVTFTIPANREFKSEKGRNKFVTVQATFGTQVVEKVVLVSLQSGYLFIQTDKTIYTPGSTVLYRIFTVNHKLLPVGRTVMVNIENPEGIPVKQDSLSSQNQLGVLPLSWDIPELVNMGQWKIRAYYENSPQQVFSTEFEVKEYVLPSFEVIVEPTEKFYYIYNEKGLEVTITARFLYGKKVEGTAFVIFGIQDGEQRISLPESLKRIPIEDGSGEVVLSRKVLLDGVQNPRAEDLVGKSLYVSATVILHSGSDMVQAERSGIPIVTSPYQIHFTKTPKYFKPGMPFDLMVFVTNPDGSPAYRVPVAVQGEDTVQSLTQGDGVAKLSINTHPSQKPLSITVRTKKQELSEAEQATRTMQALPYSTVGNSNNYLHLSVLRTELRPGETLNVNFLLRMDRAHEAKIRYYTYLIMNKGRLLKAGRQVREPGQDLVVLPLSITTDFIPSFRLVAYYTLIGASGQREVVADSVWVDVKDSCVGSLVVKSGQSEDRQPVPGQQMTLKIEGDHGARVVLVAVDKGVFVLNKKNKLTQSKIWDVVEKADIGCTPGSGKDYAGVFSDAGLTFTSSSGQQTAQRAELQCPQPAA

## recombinant human complement factor H produced in Pichia pastoris from codon-optimised DNA (Example 2) (from UniProt P08603 19-1231)
C3b [1]
  cofactor for factor I-catalysed cleavage of C3b to iC3b (SDS-PAGE, Coomassie blue): < 5 min
C3b [2]
  Kd: 1.4 µM
